T1: GST-NUB1L, Q9Y5A7-1
T1 chain: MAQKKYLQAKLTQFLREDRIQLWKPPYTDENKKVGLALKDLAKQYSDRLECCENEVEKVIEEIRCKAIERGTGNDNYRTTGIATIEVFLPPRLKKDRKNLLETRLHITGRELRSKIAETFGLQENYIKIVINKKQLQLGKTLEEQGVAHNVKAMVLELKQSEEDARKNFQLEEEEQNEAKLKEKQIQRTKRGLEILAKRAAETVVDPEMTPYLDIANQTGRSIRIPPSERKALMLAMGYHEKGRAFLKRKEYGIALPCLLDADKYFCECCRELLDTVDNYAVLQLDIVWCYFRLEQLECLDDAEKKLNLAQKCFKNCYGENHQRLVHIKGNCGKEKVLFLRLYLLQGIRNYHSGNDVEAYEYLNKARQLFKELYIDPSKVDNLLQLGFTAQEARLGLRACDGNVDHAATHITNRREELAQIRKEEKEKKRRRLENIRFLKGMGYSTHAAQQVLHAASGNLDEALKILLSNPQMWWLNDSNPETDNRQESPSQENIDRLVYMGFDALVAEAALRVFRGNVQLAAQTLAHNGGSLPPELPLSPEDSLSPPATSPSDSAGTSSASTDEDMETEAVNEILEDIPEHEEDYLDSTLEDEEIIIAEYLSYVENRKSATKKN

T2: GST-RAD23, P54727
T2 chain: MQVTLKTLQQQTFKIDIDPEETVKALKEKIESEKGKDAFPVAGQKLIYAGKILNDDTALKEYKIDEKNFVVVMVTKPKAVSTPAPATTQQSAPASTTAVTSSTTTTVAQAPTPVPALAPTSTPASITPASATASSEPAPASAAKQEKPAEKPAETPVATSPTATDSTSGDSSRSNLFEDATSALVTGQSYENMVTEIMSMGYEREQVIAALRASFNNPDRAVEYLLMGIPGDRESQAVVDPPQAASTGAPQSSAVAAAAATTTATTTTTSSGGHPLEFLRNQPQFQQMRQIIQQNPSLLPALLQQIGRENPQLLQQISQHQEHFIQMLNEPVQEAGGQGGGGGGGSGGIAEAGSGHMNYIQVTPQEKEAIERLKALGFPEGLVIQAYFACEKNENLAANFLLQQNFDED


Legend:
[1] = biological target: T1, GST-NUB1L, Q9Y5A7-1; test: Octet (BLI); conditions: chain shown with the change; GST-NUB1L on the sensor; His6-RPN1 variant in solution; parent: est. 0.58; read off a plot
[2] = biological target: T2, GST-RAD23, P54727; test: Octet (BLI); conditions: chain shown with the change; GST-RAD23 on the sensor; GST control curve in the same panel reaches est. 0.13 nm; read off a plot

| Binder | response [1] | response [2] |
| --- | --- | --- |
| His6-RPN1 WT, Q13200 T2 (protein) MEEGGRDKAPVQPQQSPAAAPGGTDEKPSGKERRDAGDKDKEQELSEEDKQLQDELEMLVERLGEKDTSLYRPALEELRRQIRSSTTSMTSVPKPLKFLRPHYGKLKEIYENMAPGENKRFAADIISVLAMTMSGERECLKYRLVGSQEELASWGHEYVRHLAGEVAKEWQELDDAEKVQREPLLTLVKEIVPYNMAHNAEHEACDLLMEIEQVDMLEKDIDENAYAKVCLYLTSCVNYVPEPENSALLRCALGVFRKFSRFPEALRLALMLNDMELVEDIFTSCKDVVVQKQMAFMLGRHGVFLELSEDVEEYEDLTEIMSNVQLNSNFLALARELDIMEPKVPDDIYKTHLENNRFGGSGSQVDSARMNLASSFVNGFVNAAFGQDKLLTDDGNKWLYKNKDHGMLSAAASLGMILLWDAKGGLAAIDKYLYSSEDYIKSGALLACGIVNSGVRNECDPALALLSDYVLHNSNTMRLGSIFGLGLAYAGSNREDVLTLLLPVMGDSKSSMEVAGVTALACGMIAVGSCNGDVTSTILQTIMEKSETELKDTYARWLPLGLGLNHLGKGEAIEAILAALEVVSEPFRSFANTLVDVCAYAGSGNVLKVQQLLHICSEHFDSKEKEEDKDKKEKKDKDKKEAPADMGAHQGVAVLGIALIAMGEEIGAEMALRTFGHLLRYGEPTLRRAVPLALALISVSNPRLNILDTLSKFSHDADPEVSYNSIFAMGMVGSGTNNARLAAMLRQLAQYHAKDPNNLFMVRLAQGLTHLGKGTLTLCPYHSDRQLMSQVAVAGLLTVLVSFLDVRNIILGKSHYVLYGLVAAMQPRMLVTFDEELRPLPVSVRVGQAVDVVGQAGKPKTITGFQTHTTPVLLAHGERAELATEEFLPVTPILEGFVILRKNPNYDL | 0.28 nm | 0.25 nm |
| His6-RPN1 WT, Q13200 T1; T2 (protein) MEEGGRDKAPVQPQQSPAAAPGGTDEKPSGKERRDAGDKDKEQELSEEDKQLQDELEMLVERLGEKDTSLYRPALEELRRQIRSSTTSMTSVPKPLKFLRPHYGKLKEIYENMAPGENKRFAADIISVLAMTMSGERECLKYRLVGSQEELASWGHEYVRHLAGEVAKEWQELDDAEKVQREPLLTLVKEIVPYNMAHNAEHEACDLLMEIEQVDMLEKDIDENAYAKVCLYLTSCVNYVPEPENSALLRCALGVFRKFSRFPEALRLALMLNDMELVEDIFTSCKDVVVQKQMAFMLGRHGVFLELSEDVEEYEDLTEIMSNVQLNSNFLALARELDIMEPKVPDDIYKTHLENNRFGGSGSQVDSARMNLASSFVNGFVNAAFGQDKLLTDDGNKWLYKNKDHGMLSAAASLGMILLWDAKGGLAAIDKYLYSSEDYIKSGALLACGIVNSGVRNECDPALALLSDYVLHNSNTMRLGSIFGLGLAYAGSNREDVLTLLLPVMGDSKSSMEVAGVTALACGMIAVGSCNGAVTSTILRTIMRKSETELKDTYARWLPLGLGLNHLGKGEAIEAILAALEVVSEPFRSFANTLVDVCAYAGSGNVLKVQQLLHICSEHFDSKEKEEDKDKKEKKDKDKKEAPADMGAHQGVAVLGIALIAMGEEIGAEMALRTFGHLLRYGEPTLRRAVPLALALISVSNPRLNILDTLSKFSHDADPEVSYNSIFAMGMVGSGTNNARLAAMLRQLAQYHAKDPNNLFMVRLAQGLTHLGKGTLTLCPYHSDRQLMSQVAVAGLLTVLVSFLDVRNIILGKSHYVLYGLVAAMQPRMLVTFDEELRPLPVSVRVGQAVDVVGQAGKPKTITGFQTHTTPVLLAHGERAELATEEFLPVTPILEGFVILRKNPNYDL | 0.18 nm | – |

From publication PMC10185811
